Laboratory results reported in article PMC5579359, “Sensing of viral and endogenous RNA by ZBP1/DAI induces necroptosis” (The EMBO Journal, 2017).

Molecular target: the molecule itself
Assay: non-reducing SDS-PAGE and Western blot

B1: MLKL (natural protein, mouse (endogenous in NIH3T3), UniProt Q9D2Y4 1-472, looked up)
chain: MDKLGQIIKLGQLIYEQCEKMKYCRKQCQRLGNRVHGLLQPLQRLQAQGKKNLPDDITAALGRFDEVLKEANQQIEKFSKKSHIWKFVSVGNDKILFHEVNEKLRDVWEELLLLLQVYHWNTVSDVSQPASWQQEDRQDAEEDGNENMKVILMQLQISVEEINKTLKQCSLKPTQEIPQDLQIKEIPKEHLGPPWTKLKTSKMSTIYRGEYHRSPVTIKVFNNPQAESVGIVRFTFNDEIKTMKKFDSPNILRIFGICIDQTVKPPEFSIVMEYCELGTLRELLDREKDLTMSVRSLLVLRAARGLYRLHHSETLHRNISSSSFLVAGGYQVKLAGFELSKTQNSISRTAKSTKAERSSSTIYVSPERLKNPFCLYDIKAEIYSFGIVLWEIATGKIPFEGCDSKKIRELVAEDKKQEPVGQDCPELLREIINECRAHEPSQRPSVDGRSLSGRERILERLSAVEESTDKKV
notes: also called pseudokinase MLKL; source: endogenous, NIH3T3 cell and primary MEF lysates
stoichiometry N: 3
